Reference: US20250084176A1

Molecular target: mouse CD137, full length, on cells (mouse) (UniProt P20334)
Assay: cell-based or functional assay

Chain of mouse CD137, full length, on cells (mouse) (P20334 24-256): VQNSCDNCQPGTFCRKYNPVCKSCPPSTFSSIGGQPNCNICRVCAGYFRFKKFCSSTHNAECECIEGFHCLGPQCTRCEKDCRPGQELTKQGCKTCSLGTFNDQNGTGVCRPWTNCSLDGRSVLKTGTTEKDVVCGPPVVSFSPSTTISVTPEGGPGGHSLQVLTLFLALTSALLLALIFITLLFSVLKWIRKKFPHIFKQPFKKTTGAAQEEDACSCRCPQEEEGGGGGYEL

Q: With G1-AA/Lob12.3 (antibody) as the substance, how does the IL-2 release, mouse CD137 DO11.10 T cell activation assay, Protein L: +XL EC50 read?
A: Its IL-2 release, mouse CD137 DO11.10 T cell activation assay, Protein L: +XL EC50 is 2.26 nM.

Q: What about the IL-2 release, mouse CD137 DO11.10 T cell activation assay, Protein L: +XL Emax of the same substance?
A: Its IL-2 release, mouse CD137 DO11.10 T cell activation assay, Protein L: +XL Emax is 21300 pg/mL.
